# Earlier results in PMC3432176.
# Molecular target: preMADH (Paracoccus denitrificans) (UniProt P22619)
# Assay: kinetics
# Chain of UniProt P22619 (P22619 58-188, chain 1 of 2): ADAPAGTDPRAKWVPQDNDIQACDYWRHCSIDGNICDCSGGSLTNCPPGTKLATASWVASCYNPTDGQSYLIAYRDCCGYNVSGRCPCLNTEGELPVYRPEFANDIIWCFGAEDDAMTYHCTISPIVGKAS
# Chain of UniProt P22619 (P29894 29-417, chain 2 of 2, further chain): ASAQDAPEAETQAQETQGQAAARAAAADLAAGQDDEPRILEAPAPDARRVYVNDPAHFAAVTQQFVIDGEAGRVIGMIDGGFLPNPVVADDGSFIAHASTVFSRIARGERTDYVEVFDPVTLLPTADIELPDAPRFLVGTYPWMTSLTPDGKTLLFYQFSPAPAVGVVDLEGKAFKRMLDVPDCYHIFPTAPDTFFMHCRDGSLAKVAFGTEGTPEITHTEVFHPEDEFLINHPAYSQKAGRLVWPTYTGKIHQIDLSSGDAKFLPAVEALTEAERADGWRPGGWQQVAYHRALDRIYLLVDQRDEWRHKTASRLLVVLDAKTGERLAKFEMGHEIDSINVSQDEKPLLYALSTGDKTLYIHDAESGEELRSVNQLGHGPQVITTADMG
substance,measurement,value
MauG (from UniProt Q51658),Kd,< 1500 nM
